Measured values reported in the supplement of paper PMC9732359.
± gives the uncertainty stated by the source.

Test: protein stability index of a GFP-peptide fusion (yeast GPS) (PSI 1-4); higher = more stable; sorted into four equal gates, so the index is relative within each strain
How it was run: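 Yeast carrying a pooled library were grown to mid-log phase in leucine-free medium. Each library plasmid expresses Cherry and has a tiled 17-residue yeast protein peptide fused downstream of GFP. Cells were sorted into four equal gates by GFP/Cherry ratio, and plasmids from each gate were PCR-amplified, Illumina-sequenced and assigned to strains by barcode. Summing, across gates, the read frequency times the gate number gave each peptide's protein stability index.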

Sequence | protein stability index (doa10∆) | protein stability index (pdr5∆) | protein stability index (san1∆) | protein stability index (ubr1∆)
TTKMWPTNCPLRQFKTC [BRR2] | 2.41 ± 0.093 | 2.31 ± 0.095 | 2.01 ± 0.082 | 2.34 ± 0.086
ISCPLIGVIQLAHYVVT [FAS1] | 1.57 ± 0.072 | 1.2 ± 0.041 | 1.24 ± 0.093 | 1.27 ± 0.042
PMTVKLVQLPKSAMDTF [POP3] | 2.15 ± 0.058 | 2.52 ± 0.062 | 2.81 ± 0.053 | 2.88 ± 0.053
LEKLVDHHPEGLSAREA [PRE10] | 2.92 ± 0.068 | 2.9 ± 0.059 | 2.65 ± 0.067 | 2.62 ± 0.058
RRDDEVLVVRGSKKGQE [RPL26A] | 3.63 ± 0.087 | 3.36 ± 0.089 | 3.59 ± 0.079 | 3.57 ± 0.085
ELVRLLIIDEIHLLHDD [BRR2] | 2.17 ± 0.11 | 1.63 ± 0.075 | 1.5 ± 0.1 | 1.97 ± 0.063
FNGIENQSAYEWNGKSF [ISW2] | 3.09 ± 0.12 | 3.25 ± 0.2 | 3.31 ± 0.076 | 3.22 ± 0.12
DHQHILRKLKKMNNKPE [RPC53] | 1.87 ± 0.053 | 1.7 ± 0.06 | 1.78 ± 0.1 | 1.51 ± 0.044
TVFFLIRVAETRGGASA [YJL039C/NUP192] | 2.18 ± 0.071 | 2.08 ± 0.074 | 2.76 ± 0.13 | 2.13 ± 0.047
LSTSVGWKYEDVVAKLE [RPL16A] | 3.44 ± 0.11 | 3.29 ± 0.21 | 3.5 ± 0.14 | 3.53 ± 0.19
QTEIKDIILGQNIKAPS [PRP8] | 2.6 ± 0.087 | 3.04 ± 0.074 | 2.58 ± 0.11 | 2.78 ± 0.07
NIDQEGSKQADRMAKYL [PGD1] | 3.4 ± 0.094 | 3.35 ± 0.13 | 2.97 ± 0.087 | 3.17 ± 0.15
GLVCADTFRAGAFDQLK [SRP54] | 3.14 ± 0.1 | 3.54 ± 0.1 | 3.34 ± 0.11 | 3.25 ± 0.084
IAIAGTGQIEGLLDYMR [COR1] | 3.37 ± 0.088 | 3.54 ± 0.081 | 3.17 ± 0.061 | 3.15 ± 0.057
VKEQTEAAKKSEKKAKK [RPL34A] | 3.36 ± 0.13 | 3.48 ± 0.094 | 3.18 ± 0.038 | 3.31 ± 0.067
RGTDIDRINYTETALMN [SRB5] | 3.02 ± 0.26 | 2.98 ± 0.11 | 2.69 ± 0.082 | 2.73 ± 0.12
VDPEQEAHNKALNQFKR [RPT4] | 3.37 ± 0.19 | 3.26 ± 0.13 | 3.41 ± 0.11 | 3.02 ± 0.14
EDGTFSVLYPDELEDDT [RRP43] | 3.23 ± 0.086 | 3.1 ± 0.077 | 3.16 ± 0.061 | 3.11 ± 0.063
RVTNTTSTDFPGFSKDA [RPC40] | – | 3.04 ± 0.21 | – | –
STIPTRENGKGGQIAHI [ROX3] | 3.01 ± 0.11 | 3.17 ± 0.092 | 2.98 ± 0.052 | 2.97 ± 0.19
EERMGQIENLNEVCLEK [SMC4] | 3.48 ± 0.28 | – | 2.47 ± 0.27 | –
RAPIYHSKFRSSSGNTW [YML031W/NDC1] | 2.43 ± 0.11 | 2.34 ± 0.06 | 3.15 ± 0.084 | 2.59 ± 0.06
SNGNNLPLNKPRLEKLI [RGR1] | 3.27 ± 0.052 | 3.36 ± 0.056 | 3.18 ± 0.055 | 3.16 ± 0.063
VDENGDPIWQHQSLGPD [RET1] | 3.25 ± 0.056 | 3.21 ± 0.081 | 3.33 ± 0.042 | 3.27 ± 0.084
EILYYQIKTLPEQYSDI [AAR2] | 2.9 ± 0.081 | 3.14 ± 0.084 | 2.77 ± 0.067 | 2.91 ± 0.046
SKLLQTTLKLSPSPILL [NUT1] | 2.4 ± 0.045 | 1.47 ± 0.051 | 1.72 ± 0.091 | 1.5 ± 0.046
QPSKVSSNVQQPQQQLG [RTT102] | 2.82 ± 0.081 | 2.88 ± 0.094 | 2.61 ± 0.082 | 3.03 ± 0.1
